{"source": "the DeepSol protein solubility set"}
{"assay": "soluble on expression in E. coli; label from the status in PepcDB or PDB records"}
{"sequence": "MSLKNQWNNILSIGEKVLNGEKITADEALTLSKSNGSDIFLLCSFANKLREKFNGNHVDLCSVINAKSGNCSEDCAFCAQSAHHKANVSCYPLLNEDKILEMAKQREAYGARHCDIATSGLGYTGDEKDFQTILKAFKKMKENTNLKLCACLGTLTEKAMNSLAAVGVERYNHNLETAKSFYKNIVSTHGYDERIKTINYAKNAKMEVCSGMIVGLGETMEQRIEHALLLRDLNVDAVPVNILNPVKGTKLENAKPLSPMEIIKTFAIIRFILPDKIIRYAGGREKNLRSLQPLGFLSGLNGMLIGNYLTTNGQSVNDDFNMLKDLELEYEGHHHHHH", "soluble on expression in E. coli": "soluble"}
{"sequence": "MSLKPASVIIMDEHPIVRMSIEVLLGKNSNIQVVLKTDDSRTAIEYLRTYPVDLVILDIELPGTDGFTLLKRIKSIQEHTRILFLSSKSEAFYAGRAIRAGANGFVSKRKDLNDIYNAVKMILSGYSFFPSETLNFISNTRTPKGGHHDMPLSNREVTVLRYLANGMSNKEIAEQLLLSNKTISAHKANIFSKLGLHSIVELIDYAKSHELLEGHHHHHH", "soluble on expression in E. coli": "soluble"}
{"sequence": "MSLKPLSSPLQQYWQTVVERLPEPLAEESLSAQAKSVLTFSDFVQDSVIAHPEWLTELESQPPQADEWQHYAAWLQEALCNVSDEAGLMRELRLFRRRIMVRIAWAQTLALVTEESILQQLSYLAETLIVAARDWLYDACCREWGTPCNAQGEAQPLLILGMGKLGGGELNFSSDIDLIFAWPEHGCTQGGRRELDNAQFFTRMGQRLIKVLDQPTQDGFVYRVDMRLRPFGESGPLVLSFAALEDYYQEQGRDWERYAMVKARIMGDSEGVYANELRAMLRPFVFRRYIDFSVIQSLRNMKGMIAREVRRRGLTDNIKLGAGGIREIEFIVQVFQLIRGGREPSLQSRSLLPTLSAIAELHLLSENDAEQLRVAYLFLRRLENLLQSINDEQTQTLPSDELNRARLAWAMDFADWPQLTGALTAHMTNVRRVFNELIGDDESETQEESLSEQWRELWQDALQEDDTTPVLAHLSEDDRKQVLTLIADFRKELDKRTIGPRGRQVLDHLMPHLLSDVCAREDAAVLSRITALLVGIVTRTTYLELLSEFPAALKHLISLCAASPMIASQLARYPLLLDELLDPNTLYQPTATDAYRDELRQYLLRVPEDDEEQQLEALRQFKQAPVLRIAAADIAGTLPVMKVSDHLTWLAEAMIDAVVQQAWVQMVARYGKPNHLNEREGRGFAVVGYGKLGGWELGYSSDLDLIFLHDCPMDAMTDGEREIDGRQFYLRLAQRIMHLFSTRTSSGILYEVDARLRPSGAAGMLVTSAEAFADYQKNEAWTWEHQALVRARVVYGDPQLTAHFDAVRREIMTLPREGKTLQTEVREMREKMRAHLGNKHRDRFDIKADEGGITDIEFITQYLVLRYAHEKPKLTRWSDNVRILELLAQNDIMEEQEAMALTRAYTTLRDELHHLALQELPGHVSEDCFTAERELVRASWQKWLVEEEGHHHHHH", "soluble on expression in E. coli": "soluble"}
{"sequence": "MSLKQAMGYLRQSTTKQQSLAAQKQTIKVLAEKHNIQHITFYSDKQSGRTDKRNGYQQITELIQQGQCDVLCCYRLNRLHRNLKNALKLMKLCQTYHVHILSVRDGYFDMNKAFDRLKLNIFISLAELESDNIGEQVKNGLREKAKQGKLITTHAPFGYHYHNGTFTIDTVKSPTVKAVFNYYLQGYGYKKIAQYLEADNKFINRKPYQVRNIILNPNEGHHHHHH", "soluble on expression in E. coli": "not soluble"}
{"sequence": "MSLKQPAVFFDKNVSTIEENNSLLDGQTDVPVLDPHDLLVEVQAVSVNPVDTKLRQTGVASKIKILGYDAFGIVKNTGKDVTRFHAGDRVYYAGTTQRPGSNEKFQAVDERLVGRAPEKLNKSEIAAMPLTSITAYEILVDQLGLRFQNHAADGKNMLVINGAGGVGSVLLQMAAYLGINLSVTAHSSESIEWLKKYSVDKIYDYENIDETLADQKFDYIVFLYDPALYWDIAIKHIKPYGQLVSIVGTNKPLNMGPLKNIAVQFKWEYMFAKSDFNHNILSQGQALDKIAILLDAGILKTTLNKTFDLINAENLRQAYKLVESGRMQGKVVLNGPFDKALKEGHHHHHH", "soluble on expression in E. coli": "soluble"}
{"sequence": "MSLKRADLSIVPLTFKHPIVTAHAVLSVRRTLILRLETVDGVVGYGEGAAFETPWYTEETTQSMIDTSKLILNLLKGMTVTTDVFPNLVSSIIGQRMAKAMWESALWEIEATRANKSLKSFISAGDSVSCGRTIGIGLLNQTMKSIETALADGFERIKLKASPNELLPALREIRAVFPDAPLMIDLNGSASDQPMEWFEQLDTYRLLMIEQPYPSRQFTKSAALQAKLTTPICLDESITSYDDVETMAQLGAGKIVNIKPARVGGLSEAFHIRKHGTPYWVGGMYESGIGRYHTLLFASLSGASFPADMSGTSAYFEQDLLDIPLEVENGKLTLPDSVQPDWNVIERLREEVITLQTEGHHHHHH", "soluble on expression in E. coli": "soluble"}
{"sequence": "MSLKRIRPLDPDVVNKIAAGEIIVAPMHALKELIENAVDAGSTSIEVLVKDGGMKLLQITDNGHGIDRDDLPILCERFTTSKLKQFEDLSSIGTYGFRGEALASISHIAHLTVTTKTAGSSCAWRAHYSDGKLVPPKPGQSAEPKATAGRGGTQITVEDLFYNVPTRRRAFRSASEEYAKILDVVGRYAVHCSGVAFSCRKHGESGAGISTPAAANTTDRIRQIHGSAVANELVEFQVEDSKLGFRSSGLVTNANYHVKRTVIMLFINHRSVESTAIKRAVEQTYSSFLPKGGHPFVYIDLEIEPHRVDVNVHPTKREVNFLNEDDIIESICSEIRSKLAQEGHHHHHH", "soluble on expression in E. coli": "soluble"}
{"sequence": "MSLKSAKELLFLALGGSGEIGMNVNLYCCDGKWLMVDLGMTFADPYYPGIDLVFADLEFIEERLDDLVGIVLTHAHEDHIGAVPYFAQDLGVPLYATPFTAKLVHEKLLEAGIEKEVELNVIDHLDPFQLGPFGLRYIPLAHSIAEGNALLIDTPHGRIFHTGDWKLDDEPRIGTPATEEELTAIGDEGVLALVCDSTNVFNPNPSGSEGAVRAGLLEAVAAQKGRRVVVTTFASNVARLQTLGEVAEATGRRVCVAGRSLDRIIRVAQSCGYLKNFPETVHMDDAMDLPRGELLVLATGGQGEPRAALARIAADQHPVKLEKGDAVLFSTRQIPGNELAIGRVQNALVEKGVRIVTDRQSMIHVSGHPGRPELMALYEWLRPEILVPVHGEIRHMAEQAQLGLDEGIPKAIVQKNGDLIRLAPNGPKKLSEEGHHHHHH", "soluble on expression in E. coli": "soluble"}
{"sequence": "MSLKSDNDVVITGVGIVTCHGVGSQAHVALLSGAAVPEPVVETEKFKPYPVHPMPEIDWSAQIAKRGDQRQMENWQRLGVFAAGLALDDAGLKENTEACATMDMIVAAGGGERDINVDTLIVDEALKRNDREKLLNEKLTTELRPTLFLAQLSNLMAGNISIVHKVTGSSRTFMGEEAAGISAVETAFHRIRSGESSHALVGGAFSAERPDMILLFEAIGAHAQGGWQPLWSRGDQDGGGMISGSLGAFLVLESRKHASERGARIYARIDAIEGDRGSRDDGKMEKRMERLLAPAKDSAATVVFSGASGYDEVTVREKDILEKVLPNSVIRGFGGVTGHGLEAQFPLGLALAALTLESGAKVPTFDAAAEKPMGEAATEAVVTTVGHVRGEGVAVLSRDVEGHHHHHH", "soluble on expression in E. coli": "soluble"}
{"sequence": "MSLKSFFIGNIEIKVPVIQGGMGVGISLSGLASAVANEGGVGVISCAGLGLLYPKEKGTYTEKCISGLKEEIRKSRMKTKGIIGVNVMVALSNYADMVRTAINEKIDVIFSGAGLPLDLPSYLTTGSITKLVPIVSSSRAAKIICDKWQKNYNYLPDAIVVEGPKAGGHLGFKKEQLQDQNYALDVLIPEVVAIAASYKEQKHIPVIAAGGISTGEDIAHFMELGASGVQMGSIFVTTLECDASETFKEVYIHSKSEDVLIIESPVGMPGRAIDGEFIHSVNNGLEKPRKCSFHCIKTCDYTKSPYCIIKALYNAAKGNMKKGYAFAGSNAFLADKISSVKEVMNTLEREFFLATHKLVEGHHHHHH", "soluble on expression in E. coli": "not soluble"}
{"sequence": "MSLKSISLLLLSLLMITPSCQKPKEVTNEYNIVPQPNQLVPKEGRFELSNKVRLVVPSDAPEVKKVADGFAEQLKQTAGISLTEAESVDGKPAISFVLQEGMPKEGYKLSVTPTLITVTASQPNGFFYGVQTIYQLLPPAVYGKELKKKADWSVPAVEIEDAPRFVHRGLMLDVCRHYAPIEYIYKFIDLLAMNKMNVFHWHLTDDQGWRIEIKKYPKLTEIGSKREKTLVDYYYVNYPQVFDGIEHGGYYTQEQIKEVVAYAASKYINVIPEIEMPGHALAALAAYPELSCDSTQTYKVSPTWGVFEQVFCPSETTFKFFEGVMDEVVELFPSEYIHIGGDECPKTAWKNSTFCQQLIRQLGLKDDATPSKVDGVKHSKEDKLQSYFVTRMEKYLNGKGRNIIGWDEILEGGLAPNATVLSWRGVEGGLNAAKAGHNAIMAPMPYAYLDFYQEDPEIAPTTIGGYTTLKKTYSYNPVPDNADELVKKHIIGMQGNLWREYMKTSDRVDYQAFPRAMAIAETGWTLDANKNWKSFCERMVTEFERLEVMDTKPCLNFFDVNINTHADENGPLMVLLETFYPNAEIRYTTDGSEPTYGSTLYEQPFVLEGNIDLKAAAFKDGKMLGKVTNKPLYGNLLAGKEGHHHHHH", "soluble on expression in E. coli": "soluble"}
{"sequence": "MSLKTFLVCALEPSANLHLKEVLKAYKKDFGEFELHGIYDESLCKEFDLNSKPLYSSHEFSAMGFIEVLPLIFKAKKAIKELANLSFTQKINGILCIDSPAFNIPFAKALKKAGSKIPRIYYILPQVWAWKKGRIPIIESHFDILASILPFDNQFFNKSTYIGHPLLDEIKEFKNQEDINHTFSKKDDEKTIAFLPGSRRSEIRRLMPIFKELSQKFKGKKILCVPSFNLEKLEVYGDISEFKIESNTPKVLKKADFAFICSGTATLEAALVGTPFVLAYKAKAIDIFIAKLFVKLKHIGLANIFCDFAGKEALNPEFLQDKVNVLNLYEAYNKYDYKAFFAKVDFLKEYLQFGSAKNLAKILNEIEGHHHHHH", "soluble on expression in E. coli": "soluble"}
{"sequence": "MSLKTGRSNIIAFIVPDQNPFFTEVLTEISHECQKHHLHVAVASSEENEDKQQDLIETFVSQNVSAIILVPVKSKFQMKREWLKIPIMTLDRELESTSLPSITVDNEEAAYIATKRVLESTCKEVGLLLANPNISTTIGRKNGYNKAISEFDLNVNPSLIHYSDQQLGTNAQIYSGYEATKTLLSKGIKGIVATNHLLLLGALQAIKESEKEIKKDVIIVGFDDSYWNEIYTPKLTVISQPVKEMGQVAAKMIYKLIKGKDVTSIKLSTKLIIRESCSFNEGHHHHHH", "soluble on expression in E. coli": "soluble"}
{"sequence": "MSLKTIITNLKVYILKGPKEKRPHWVSNFIVPNANELLVILETNQGVEGFGLATSYTDMSPIVHVIESGISEKILGCNPLEPEMLYQSLFNLTASRLAYEKGWSREALIRVSAAVDIACWDIIGKISGLPLYQLFGGFRNKVPCYVTCAYYREGKDHAELKDEIQMLVDQGHQGFKAKVGGLSLAEDLERMELVREIIGPERDLMIDVNRAWDLKTAIEGARLLEPLKPTWLEEPVRWMDDRRELKILAQHTSIPLSGGESESTSYGCRTMIDEKAIQILQFDCTMFGGFTEGRKMTALCDLNHVDVAPHHDCFIHAPLVASSPAGRIVESFTDPERDPLQAELFENPPNIEKGWLTLNEAQGLGLTLSENALAKFGTQIIEGHHHHHH", "soluble on expression in E. coli": "soluble"}
{"sequence": "MSLKTSRLPIAIQQAVMRRLREKLAQANLKLGRNYPEPKLSYTQRGTSAGTAWLESYEIRLNPVLLLENSEAFIEEVVPHELAHLLVWKHFGRVAPHGKEWKWMMESVLGVPARRTHQFELQSVRRNTFPYRCKCQEHQLTVRRHNRVVRGEAVYRCVHCGEQLVAKEGHHHHHH", "soluble on expression in E. coli": "not soluble"}
{"sequence": "MSLKTTPLPILDLLEAYRPLFVEALGNRSRKERSKKERYIAKITAPCIDACPAHVDIPAYIEGVRDHLLGDSLAATRKSMPLAQVCGRVCPHPCESACRRGDLDEPISIMELKRLGADYEKERHGGFIHPYPPKPRRKDKRVAIIGAGPAGLSSAYYLALEGIMSDVFEALPVLGGEVSVGVPEYRMPIDRYYHDIEAIKSLGVSFWTNHFVSAKELDEMRQKYDAIILATGARISKKLGVKGEEESLGGYAPAIPWLDQINLATKFNLAALPDLRGKSVVCVGGGFTSMDVVRCAVRLGAKRIVMLYRRDEATLIQNTSKEEYHEALEEGVEFLFQCAVQEIKSCGGEIKALLVEEYEVVYEEGARKPSLRRIEREPLFLECDLLIPAVSQEVDRSFIPKEWNLESTSWGSFKTNGKDFSTTLRGVFAAGDCEKGPLTIVNAVGQGKRAASVVSRFLEDGEEGHHHHHH", "soluble on expression in E. coli": "soluble"}
